From paper doi:10.1101/2023.08.11.553045 (bioRxiv, 2023)
Where no end group is shown, it is not given here.

B1: STING cytosolic domain (hSTING CTD lacking CTT3, aa 137-366) (domain or fragment)
chain: KGLAPAEISAVCEKGNFNVAHGLAWSYYIGYLRLILPELQARIRTYNQHYNNLLRGAVSQRLYILLPLDCGVPDNLSMADPNIRFLDKLPQQTGDHAGIKDRVYSNSIYELLENGQRAGTCVLEYATPLQTLFAMSQYSQAGFSREDRLEQAKLFCRTLEDILADAPESQNNCRLIAYQEPADDSSFSLSQEVLRHLRQEEKEEVTVGSLKTSAVPSTSTMSQEPELLIS

Tests used:
[1] = biological target: STING cytosolic domain (hSTING CTD lacking CTT3, aa 137-366) (human) (UniProt Q86WV6); experiment: MST
[2] = biological target: B1; experiment: MST
SEC = biological target: the molecule itself; experiment: SEC
STING-R284S CTD = STING-R284S CTD (human, UniProt Q86WV6 137-366, R284S); experiment: NMR titration
[3] = biological target: B1; experiment: NMR titration

Molecule: CTT8 peptide (MFEKPLPL)
- fold enhancement of affinity over CTT7 [1]: 2.7 fold

Molecule: MEKPLPL [CTT7 peptide (unlabelled)]
- Kd [2]: 10.7 µM

Molecule: B1
- binding result (SEC): binds

Molecule: MEKPLPL (also: 15N isotopically labelled amino acids) [15N-labelled CTT7]
- binding result (STING-R284S CTD): binds
- binding result [3]: binds
